{
  "source": "patent US7888090B2",
  "about": "“Mutants of O6-alkylguanine-DNA alkyltransferase” (Ecole Polytechnique Federale de Lausanne, priority 2004, dated 2011)",
  "key": {"[1]": {"experiment": "BG-Cy3 activity assay (reaction rate of AGT mutants)", "assay_type": "biochemical", "protocol": "Reactivity against DNA-based substrates measured with a BG-Cy3 assay: BG-Cy3 is prepared by reacting the previously described O^6-(4-aminomethyl-benzyl)guanine (Keppler et al., NatureBiotechnol. 21:86-89, 2003) with the commercially available N-hydroxysuccinimide ester of Cy3, (Cy3-NHS, Amersham). The coupling reaction is performed at ambient temperature in N,N-dimethylformamide in the presence of 1 eq. of triethylamine. The BG-Cy3 conjugate is purified by reversed-phase HPLC on a C18-column by using linear gradients from 0.1% trifluoroacetic acid to acetonitrile. After solvent evaporation BG-Cy3 is dissolved in dimethyl sulfoxide and stored at −20° C. For measuring the reactivity with DNA-based substrates, a reaction mixture containing different concentrations (0 to 5 µM) of oligonucleotide SEQ ID NO:2 (modified in position 14), GST-AGT fusion protein at 0.2 µM and BG-Cy3 at […] in reaction buffer (50 mM HEPES, pH 7.2, 1 mM DTT, 200 mg/ml BSA) is incubated in microtiterplates. Fluorescence of the Cy3 derivative (excitation 519 nm, emission at 572 nm) is measured on a Spectramax Gemini plate reader (Molecular Devices).\nThe amplified products are cloned in fusion to the g3 gene of filamentous phage in the vector pAK100 via SfiI restriction sites. The resulting gene libraries are used for phage display as described under Example 4. The mutants of the libraries are selected with 5 to 50 nM of BG-Bt for 10 min. Selected mutants are subcloned into pGEX using the primers SEQ ID NO:3 and SEQ ID NO:13. The reaction rate of mutant AGTs is determined as described in Example 6, Reactivity against DNA-based substrates (BG-Cy3 assay).\nFor the activity assay purified GST fusion proteins were used for mutants marked with “p.” (prepared as described under Example 1); periplasmic extracts were used for mutants marked with “x.” (prepared as described under Example 2)."}, "[2]": {"experiment": "Stability after reaction with BG-FL", "assay_type": "physicochemical", "conditions": "over 7 days", "protocol": "Stability before reaction is determined for the mutant AGT or for a mutant AGT fusion protein by incubating purified samples in buffered aqueous solution for up to two weeks at 4° C. and up to six months at −20° C. At several time points, aliquots are taken and concentration of reactive AGT is estimated as described by Juillerat et al., Chem Biol 10:313-317, 2003. Stability for wild type AGT and the AGT mutant after reaction with a labelled substrate and after subsequent separation from unreacted substrate is determined by quantifying the concentration of the label in the soluble fraction over up to two weeks at 4° C. and up to three months at −20° C.\nStability after reaction: The vector pBAD/H is A (Invitrogen) is modified by cloning synthetic oligonucleotides (SEQ ID NO:29 and SEQ ID NO:30) between the NcoI and HindIII sites to include a 12×His-tag and SbfI and AscI cloning sites. The gene of AGTM is amplified with primers SEQ ID NO:31 and SEQ ID NO:32 and cloned between the SbfI/AscI sites into this vector. Wild type AGT and mutant AGT (Lys125Ala, Ala127Thr, Arg128Ala, Asn157Gly, Ser159Glu) are amplified with primers SEQ ID NO:31 and SEQ ID NO:33 and cloned into this vector. Protein expression is carried out in E. coli strain Top 10. An exponentially growing culture is induced with 0.2% arabinose, and the expression is carried out for 16 hours at 28° C. The cells are lysed by adding buffer to 10 ml/g containing 0.5 M NaCl, 80 mM imidazole, 1% Triton, 250 µM PMSF, 1 mM […]-mercaptoethanol, 5 mg/ml lysozyme, 20 µg/ml DNase and stirring for 45 min. […]\nThe AGT proteins at 10 µM) are quantitatively reacted with fluorescein-modified O^6-benzyl-guanine (substance 5 of Juillerat et al, Chem Biol 10:313-317, 2003, BG-FL, 20 µM) and purified over a size exclusion column (Econopac 10 DG, Bio-Rad) and incubated for 7 days. […] The fluorescence of the supernatant is measured with a Victor2 fluorescence plate reader (Perkin Elmer, excitation/emission at 485/535 nm)."}, "[3]": {"experiment": "Reaction of two AGT variants in one sample with CPTG and BG-Bt", "assay_type": "biochemical", "protocol": "FIG. 2: Western blot of the reaction of wild type hAGT (GST-hAGT fusion protein) and AGTM with the two substrates N^9-cyclopentyl-O^6-bromophenyl-guanine (CPTG) and biotinylated O^6-benzylguanine (BG-Bt, substance 3a of Juillerat et al. 2003) as described in Example 7. BG-Bt is present in all samples at 5 μM. Detection with neutravidin-peroxidase conjugate and luminescent peroxidase substrate detecting any AGT reacted with BG-Bt. Even under simultaneous incubation with identical concentrations of CPTG and BG-Bt only about 5% of GST-hAGT reacts with substrate BG-Bt.\nWithin the experiment two tags with different size for the two AGT proteins are used: The His-tagged AGTM (˜20 kDa) and GST-hAGT (cloned and prepared as described in Example 1, but starting with the wild type hAGT gene, ˜48 kDa) are diluted to 0.2 μM and 1.2 μM final concentration, respectively, in reaction buffer containing 50 mM HEPES, 1 mM DTT, 200 mg/mL BSA (pH 7.3). The sample is incubated with a mixture of substrates N^9-cyclopentyl-O^6-bromophenyl-guanine (CPTG; 0, 5 and 10 μM final concentrations) and biotinylated O^6-benzylguanine (BG-Bt, 5 μM final concentration) for 30 minutes. The reaction is quenched by addition of SDS-Laemmli buffer and subjected to Western blotting analysis (Example 1). As the two AGT variants have different masses, the two proteins can be separated on an acrylamide gel and analyzed independently. […] At the same concentration (both substrates at 5 μM final concentration), 95% of GST-hAGT reacts with CPTG, versus only 5% of His-tagged AGTM."}},
  "data": [
    {"molecule": "Wild type hAGT: wild type human O^6-alkylguanine-DNA alkyltransferase (SEQ ID NO:1); GST-hAGT is its GST fusion (protein, listed as Homo sapiens) MDKDCEMKRTTLDSPLGKLELSGCEQGLHEIKLLGKGTSAADAVEVPAPAAVLGGPEPLMQCTAWLNAYFHQPEAIEEFPVPALHHPVFQQESFTRQVLWKLLKVVKFGEVISYQQLAALAGNPKAARAVGGAMRGNPVPILIPCHRVVCSSGAVGNYSGGLAVKEWLLAHEGHRLGKPGLGGSSGLAGAWLKGAGATSGSPPAGRN", "values": [
      {"measurement": "kobs", "setting": "[1]; BG-Cy3 activity assay", "value": 116, "unit": "M⁻¹ s⁻¹"},
      {"measurement": "Relative reaction rate", "setting": "[1]; divided by value for wild type hAGT, purified GST fusion proteins (p.)", "value": 1},
      {"measurement": "loss of soluble fluorescent protein", "setting": "[2]", "value": "about 60%"},
      {"measurement": "fraction of protein reacting with CPTG", "setting": "[3]; CPTG and BG-Bt both at 5 μM, 30 minutes", "value": 95, "unit": "%"},
      {"measurement": "fraction of protein reacting with BG-Bt", "setting": "[3]; simultaneous incubation with identical concentrations of CPTG and BG-Bt", "value": "about 5%"}
    ]}
  ]
}
